# In paper PMC10312132:
# Where two headings read alike, the source gives them in different places.
# T1: RAD52 full-length (Homo sapiens, UniProt P43351 1-418)
# T1 sequence: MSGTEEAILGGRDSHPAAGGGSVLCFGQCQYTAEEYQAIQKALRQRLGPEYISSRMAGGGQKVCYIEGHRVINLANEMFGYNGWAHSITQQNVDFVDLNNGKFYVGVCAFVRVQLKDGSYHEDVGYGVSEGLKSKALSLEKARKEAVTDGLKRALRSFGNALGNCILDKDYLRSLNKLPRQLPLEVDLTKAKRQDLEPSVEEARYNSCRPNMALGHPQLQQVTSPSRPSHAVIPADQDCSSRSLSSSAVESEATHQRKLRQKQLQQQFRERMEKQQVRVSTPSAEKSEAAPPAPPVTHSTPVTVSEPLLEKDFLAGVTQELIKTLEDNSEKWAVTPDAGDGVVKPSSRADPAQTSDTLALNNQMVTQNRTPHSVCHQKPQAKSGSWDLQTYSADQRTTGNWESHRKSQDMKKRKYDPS
# Tests used:
# Assay in all cases: EMSA
# [1] = target: T1, RAD52 full-length
# [2] = target: T1, RAD52 full-length; remark: listed apart in the source
# [3] = target: T1, RAD52 full-length; remark: listed apart in the source
# [4] = target: T1, RAD52 full-length; remark: listed apart in the source
binder,measurement,setting,value
TGCGGATGGCTTAGAGCTTAATTGCTGAATCTGGTGCTGT (ssDNA) [ISE#4 40-mer ssDNA],binding result,[1],binds
AAUACCGCAUCAGGAAAUUGUAAGCGUUAAUAUUUUGUUA (ssRNA) [CA#1 40-mer ssRNA],binding result,[2],binds
ACAGCACCAGATTCAGCAATTAAGCTCTAAGCCATCCGCA (ssDNA) [ISE#1 40-mer ssDNA],binding result,[3],binds
UGCGGAUGGCUUAGAGCUUAAUUGCUGAAUCUGGUGCUGU (ssRNA) [ISE#3 40-mer ssRNA],binding result,[4],binds
